Reference: patent US6528283

Columns and labels:
Test in all cases: cell-based or functional assay
Settings in all cases: scale: β-galactosidase activity units
[1] = target: hD54-ins2 bait (GAL4 DNA-binding domain fused to hD54-ins2, pAS2-1hD54-ins2) (human)
[2] = target: GAL4 DNA-binding domain alone (empty pAS2-1 vector, negative control bait) (UniProt P04386)
[3] = target: hD52 bait (GAL4 DNA-binding domain fused to full-length hD52, pAS2-1hD52) (human)
[4] = target: hD53 bait (GAL4 DNA-binding domain fused to full-length hD53, pAS2-1hD53) (human)
[5] = target: mD52 bait (GAL4 DNA-binding domain fused to full-length mD52, pAS2-1mD52) (mouse)
[6] = target: hD54+ins2 bait (GAL4 DNA-binding domain fused to hD54+ins2, pAS2-1hD54+ins2) (human)
[7] = target: mD52(95-185) bait (GAL4 DNA-binding domain fused to the C-terminal half of mD52, pAS2-1mD52(95-185)) (mouse)
[8] = target: mD52 bait (GAL4 DNA-binding domain fused to full-length mD52, pAS2-1mD52) (mouse); remark: listed apart in the source
[9] = target: mD52(1-95) bait (GAL4 DNA-binding domain fused to the N-terminal half of mD52, pAS2-1mD52(1-95)) (mouse)

Substance	β-galactosidase activity, yeast two-hybrid (Y190) [1]	β-galactosidase activity, yeast two-hybrid (Y190) [2]	β-galactosidase activity, yeast two-hybrid (Y190) [3]	β-galactosidase activity, yeast two-hybrid (Y190) [4]	β-galactosidase activity, yeast two-hybrid (Y190) [5]	β-galactosidase activity, yeast two-hybrid (Y190) [6]	β-galactosidase activity, yeast two-hybrid (Y190) [7]	β-galactosidase activity, yeast two-hybrid (Y190) [8]	β-galactosidase activity, yeast two-hybrid (Y190) [9]
GAL4 activation domain alone (empty pACT2 vector, negative control interactor) (from UniProt P04386 768-881)	0	0	0	0.14	0	0	0.23	0.34	0.36
mD52(1-163) interactor (GAL4 activation domain fused to mD52 amino acids 1-163, pACT2mD52(1-163)) (from UniProt P04386 768-881)	2.37	0	1.3	5.71	0.42	4.25			

The remaining lines, values ahead:

β-galactosidase activity, yeast two-hybrid (Y190) [1]	β-galactosidase activity, yeast two-hybrid (Y190) [2]	β-galactosidase activity, yeast two-hybrid (Y190) [3]	β-galactosidase activity, yeast two-hybrid (Y190) [4]	β-galactosidase activity, yeast two-hybrid (Y190) [5]	β-galactosidase activity, yeast two-hybrid (Y190) [6]	β-galactosidase activity, yeast two-hybrid (Y190) [7]	β-galactosidase activity, yeast two-hybrid (Y190) [8]	β-galactosidase activity, yeast two-hybrid (Y190) [9]	Substance
1.74	0.17	0.87	3	0.16	0.85				hD52 interactor (GAL4 activation domain fused to hD52, pAD-GAL4hD52, library clone starting at nt 46) (from UniProt P04386 761-881)
1.07	0.45	1.15	2.26	0.44	2.03				hD54-ins2 interactor (GAL4 activation domain fused to hD54-ins2, pACT2hD54-ins2) (from UniProt P04386 768-881)
3.51	0	2.03	6.01	0.48	5.98				hD54+ins2 interactor (GAL4 activation domain fused to hD54+ins2, pACT2hD54+ins2) (from UniProt P04386 768-881)
